This data set in a line: label from the status in PepcDB records.
Consider “MYGGAGLYKFDKLSDWMVYLDRLSKDKPVEEGWTATVFLCIRQSDKRMIGICNVRHHLNSLGLLNVSGHIGYSIRPDERKKGYAKVQLRLALLEAKKLGIDKVLVTCADWNIGSERTILANGGVYEDSRLDESTGNMMKRYWINVTERNSI”, for which the protein production result is reported as “failed”. As for “METYLEIETLIKRIFNSFRHEVEAVLDKRLSGSEYRVLSLISSGLTKTSDLAKTLDVSASHITAITDTLVEEKLITRHRSEVDRRIIELKLTSNAEEFVKEIDKKKKEMIVKRFAVFSEYEQAEFRKLLKKLADGSQSNK”, the protein production entry is listed as “failed”. For “NSTWSGESKTLVLSNLSYSATEETLQEVFEKATFIKVPQNQNGKSKGYAFIEFASFEDAKEALNSCNKREIEGRAIRLELQGPRGSPN”, the protein production result is on record as “not failed”. Consider “MNQEVRFSRLEPEQRKALLIEATLACLKRHGFQGASVRKICAEAGVSVGLINHHYDGKDALVAEAYLAVTGRVMRLLRGAIDTAPGGARPRLSAFFEASFSAELLDPQLLDAWLAFWGAVGSIEAIGRVHDHSYGEYRALLVGVLRQLAEEGGWADFDAELAAISLSALLDGLWLESGLNPATFTPRQGVQICEAWVDGLEAGAHRRFRRAMEAC”, for which the protein production entry is “not failed”. Regarding “MSNAITMGIFWHLIGAASAACFYAPFKKVKKWSWETMWSVGGIVSWIILPWAISALLLPNFWAYYSSFSLSTRLPVFLFGAMWGIGNINYGLTMRYLGMSMGIGIAIGITLIVGTLMTPIINGNFDVLISTEGGRMTLLGVLVALIGVGIVTRAGQLKERKMGIKAEEFNLKKGLVLAVMCGIFSAGMSFAMNAAKPMHEAAAALGVDPLYVALPSYVVIMGGGAIINLGFCFIRLAKVKDLSLKADFSLAKSLIIHNVLLSTLGGLMWYLQFFFYAWGHARIPAQYDYISWMLHMSFYVLCGGIVGLVLKEWNNAGRRPVTVLSLGCVVIIVAANIVGIGMAN”, the protein production entry was “failed”. As for “MNKETVLYVVIALLVGILGTVLVVGVVNKQKPAPATAGIPAGGGSPVDYQQRIAEAEKVVANDPKNLQAWIQLGNDYFDTDQAQKAINAYGKALELDPTNANVLTDQGIMFKRVGWFDKAIANFEKAQQLDPKHLQSLYNLGVVYMSDLKQPAKAVKYWERYLELDPMGPNSQQIRTMLEEAKGMAQTPSPQGQLFRK”, the protein production entry is listed as “failed”.

Consider “MSEQTSQYLSDSYVEETRFGFWFLRSHTWQHHVLRVAINDLRSLFDGELPRHPVLLDAGCGQGKSFQYLRQVFAPQRLIGLDADPHSLKLSAEEARRQQMQVELIGSDCATLELADASVDLLFCHQTFHHLVEQEKALAEFYRVLKPGGYLLFAESTEAYIDTWVIRWLFRHPMHVQKSAAQYLQMIRQQGFEFGPQNVSYPYLWWSRAKDFGLLERFGLRQPPPVGQREETLVNVVARKPLNPTVVEEGLPA”, for which the protein production result is reported as “failed”.

Take “MSRPDDIDVRPIAEAETADWIRALNTGFLRSPEVSEREVADRSSYLVPARTLGAFDNGRCVATFRSFPQELTAVGGASVPADAISNVTVTATHRRRGLLTRMMAQDLAAAKERGDVVATLIAAEYPIYGRYGFGAATHSTEWTID”: the protein production result is recorded as “failed”. In the case of “MPAPHPDSSVAPTTRLIAERALAAVFQPIVDLGSGTVVGYEGLIRGPRGTDLEPPAALFAQAARDGTTIALEQAAALACLDAFAALGCDGKLFLNFSAGTIVQLVRERERARQLLGRAGVGAERIVIELTEQTAMPDVARIEPAVASLRDAGIQFALDDYGTANASMNLWLRLHPDVVKIDRFFIHDIARDPLKFEAVRAMQHFAHASGAQLIAEGIENASDLIVVRDMGICCVQGFLLGRPNARPSPVVAPAARDAIRTPHIAVFPGAMRTARPAGTIAAKMLVPAPALPRDATSNDVLDLFNRMPGLHAVALVERGRPVALVNRRGFIDRFTLPYHREVFGKKPCLQFANDAPLMIDNATSVEQLAMLLASHDQRYLADGFVITEHGRYLGLGTGESLVRAVTEMRIEAARYANPLTFLPGNIPISAHIDRLLERDAGFHACYVDLNQFKPFNDQYGYWQGDEVLKFAATVLAGVCDPQRDFLGHVGGDDFLVLFQRDDWRARATDAIARFNDGAQRFYTQADRLAGGLRGEDRHGNPAFFGFVTMAIGAVGVPAGAHGAMRYGSDEIASVAALAKRRAKQQPGGLAVVDLDAGRAALRERGEPPLAAAG”, the protein production result is on record as “failed”. Consider “FVNTFIQFKKPIIVAVNGPAIGLGASILPLCDVVWANEKAWFQTPYTTFGQSPDGCSTVMFPKIMGGASANEMLLSGRKLTAQEACGKGLVSQVFWPGTFTQEVMVRIKELASCNPVVLEESKALVRCNMKMELEQANERECEVLKKIWGSAQGMDSMLKYLQRKIDEF”, for which the protein production entry is “failed”. With “ISSDEALKLIKEQPQLFDEYHDGFRSQVQAWPENPVDVFVDQIRYRCMKPVNAPGGLPGLKDSKEIVIADMGCGEAQLALEINNFFKNYNKKAKKYLKRRHKVHSFDLKKANERITVADIRNVPLPDESCTIVVFCLALMGTNFLDFIKEAYRILAPRGELWIAEIKSRFSDGKGNEFVDALKLMGFFHKKTFDENKMFTRFEFFKPPAEIIEERRQ”, the protein production result is listed as “failed”. As to “MDTNGVLYAANMTNALAKEIPESKWDIQLIPELGTLRKLFIHIVRVRDVYRDGLKTGSIKFPGRLASDEHRLLDELERSMEELVFEFKQTTFNSIKMGENYLSIMELLGTVIQHEGIHQGQYYVALKQSGINLPKQWVQDWHM”, the protein production result was “not failed”. Turning to “MMRPKVYFKTFGCRTNLFDTQIMIKNLQNFELTEIEESADIVVVNSCTVTNGADSGVRSYLHRLKSEGKRVYLTGCGVLTRGEEIFTQELAFGVFGHSYKEQIDSLLSQKTRFSFKGDLEHIDSTVITEFIGKSRAFVKVQEGCDFSCSYCIIPSVRGKARSLPVDRIVSQVEILAQHGFGEFVLTGTNVGSYGKESGLNVAKLLKALSQIKGVKRLRLGSLEPSQIDAEFMELLEEPFMARHLHIALQHTSPKMLQIMNRRNEAQGDLALFERLAQKGYALGTDFILGHPGESEEVWKEAWERFVAFPLTHLHAFVYSPREGTPSSLMKDRISGNIAKERMRILQERVRENNHHFRQKGEKLWVLIESEREGGLYQGLDQFFNRIEIRSSDSLAGRWLEVSDYEAESEINRAELL”, the protein production entry is on record as “failed”.

For “HFPINTLLLMRATTGVQLRLPERFGEFLDCLFRALWVDKRNLNDPATITQVLEQGGFDPQQILDLSNDEEVKAALKDKTEQALQKGVFGAPSMFVGDELFFGQDRLDFVREALNA”, the protein production entry is given as “failed”. “MTTCAPAVPAQLDVAGDLLALLRDTTTEPRPDIQLEALTLAVAADLPVLLWGEPGIGKTAALTQLATALDLPLTTVIASVHEPSDFSGLPVVGDDPAEQGVPMAPPDWAVRLVRAGRGLLFLDELSTAPPAVQAALLRLVLERRIGALRLPPGVRIVAAANPRSSAADGWELSPPLANRFVHLQWTHDQDVVVRGLGGTWPRAALPSLDPGGLDGAVRYARRAVCAFLTARPGLVHRLPSGETRRGGAWPSPRSWEMTLCLIAFATAAGSSREVLSLLVRGTVGDGPGLELMASLDRMDLPDPETLLADPAGAVLPERGDLRQAVLDGVVAAVRKRPEKSRWDSAWALLARAMETGAPDVVVVPATTLATLRQQDWDIPASIERLAGAMSLSRRADRAADRAAARLAGTARTSGLEHHHHHH”: the protein production entry is on record as “failed”. Under “MFKLVFKQYKCKSTSPDLTEVVKIDDCVVKGNDQEKSDNNIVQRLSISNVESLQTMPGVKSPKDWRTYTLTNHPGIIVIRNPFSERGRRYWSARCLRDFPRTPNIVNLNERLFDESVRSDWWKQLNLCSDGVEFQRIKSAMRWTTFGYHHNWDTKIYDEEMQSPFPEDLSSLCGLFAQALGYADFKPEAAIVNYYPVGSTLSGHTDHSEPNKSAPLFSFSFGQTAIFLIGGRSLEEKPTAIYLQSGDVMIMSGESRLCYHAVPRIIKTQASATLSLIIEDVDNADIKTRTIDKDLFHDVGNPQFWEPFSRYMDDSRININIRQVLNPGDVKL” stands “failed”; under “MLPPYNYMDNGTLKGISIDLLEAITEKMGKKVTREEIHLVSWTEGYQAALTRNNTVLFVTARTPEREQSFKWVGPIYSDKYVLFAKRDPGVTIDGPEDLKEYRIGVISDDVAAQQLLNIGLEHHHHHH”, “not failed”.

Source of the values: a protein production outcome set (Wang et al. 2014).
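Also: failed if final PepcDB status was selected cloned or expressed and not failed if soluble or beyond.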
